Laboratory results as given in the RNAGym collection of RNA variant scans (doi:10.1093/molbev/msab373).

B1: Azoarcus group I ribozyme (parent)
chain: GUGCCUUGCGCCGGGAAACCACGCAAGGGAUGGUGUCAAAUUCGGCGAAACCUAAGCGCCCGCCCGGGCGUAUGGCAACGCCGAGCCAAGCUUCGGCGCCUGCGCCGAUGAAGGUGUAGAGACUAGACGGCACCCACCUAAGGCAAACGCUAUGGUGAAGGCAUAGUCCAGGGAGUGGCGAAAGUCACACAAACCGG

Variants of: B1
Test: reverse-splicing fitness (ratio to wild type); higher = more active; in vitro selection; Mg2+ level not given
Method in brief: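 An in vitro group I ribozyme library with randomized positions was T7-transcribed and gel-purified. In triplicate, 10 pmol RNA in EPPS pH 7.5 was reacted with 50 pmoles of a 30-nt RNA substrate for 1 h at 37 °C across several added MgCl2 levels (1–48 mM), then stopped with EDTA. Products were reverse transcribed from a substrate-complementary primer, PCR-amplified and sequenced (HiSeq 4000). Fitness is a variant's read proportion after selection over that before, normalised to wild type.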

Variant	reverse-splicing fitness
C82G A111C A120U A145C C150A C169A U176G	0.00281
C82G A111C A120U A145C C150A C169A	0.00203
C82G A111C A120U A145C C150A C169U	0.00329
C82G A111C A120U A145C C150A C169G	0.00326
C82G A111C A120U A145U C150A	0.00799
C82G A111C A120U A145U C150G	0.00826
C82G A111C A120U A145U C150U	0.0307
C82G A111C A120U A145C C150U C169A U176A	0.00238
C82G A111C A120U A145C C150U C169A U176C	0.0022
C82G A111C A120U A145C C150U C169A U176G	0.0025
C82G A111C A120U C150U C169G U176A	0.00503
C82G A111C A120U C150U C169G U176C	0.00301
C82G A111C A120U C150U C169G U176G	0.00259
C82G A111C A145C C169U U176G	0.00741
C82G A111C A145C C169U U176C	0.016
C82G A111C A145C C169U U176A	0.018
C82G A111C A120U A145C C150U U176G	0.00325
C82G A111C A120U A145C C150U U176C	0.00491
C82G A111C A120U A145C C150U U176A	0.00523
C82G A111C A120U A145G C150U C169G U176G	0.00259
C82G A111C A120U A145G C150U C169G U176C	0.00437

Variant	reverse-splicing fitness
C82G A111C A120U A145G C150U C169G U176A	0.00573
C82G A111C A120U C150U U176C	0.0132
C82G A111C A120U C150U U176A	0.00878
C82G A111C A120U C150U U176G	0.00397
C82G A111C A120U C150A U176C	0.00693
C82G A111C A120U C150A U176G	0.00333
C82G A111C A120U C150A U176A	0.00581
C82G A111C A120G C169G	0.0132
C82G A111C A120G C169U	0.00963
C82G A111C A120G C169A	0.0107
C82G A111C A120U A145U C169A U176C	0.00242
C82G A111C A120U A145U C169A U176G	0.00195
C82G A111C A120U A145U C169A U176A	0.00261
C82G A111C A120U A145G C150A C169U U176A	0.00632
C82G A111C A120U A145G C150A C169U U176C	0.00449
C82G A111C A120U A145G C150A C169U U176G	0.00259
C82G A111C A120U A145U C150G C169G U176C	0.00317
C82G A111C A120U A145U C150G C169G U176G	0.00242
C82G A111C A120U A145U C150G C169G U176A	0.00287
C82G A111C A120U A145U C150U C169A U176A	0.00282
C82G A111C A120U A145U C150U C169A U176C	0.00293

Variant	reverse-splicing fitness
C82G A111C A120U A145U C150U C169A U176G	0.00223
C82G A111C A120U A145C C150G C169A U176G	0.00274
C82G A111C A120U A145C C150G C169A U176A	0.00295
C82G A111C A120U A145C C150G C169A U176C	0.00252
C82G A111C A120U A145C C169U	0.00341
C82G A111C A120U A145C C169A	0.00204
C82G A111C A120U A145C C169G	0.00323
C82G A111C A120U A145C C150A C169G U176C	0.00286
C82G A111C A120U A145C C150A C169G U176G	0.00223
C82G A111C A120U A145C C150A C169G U176A	0.00319
C82G A111C A145C C150U C169U U176C	0.0131
C82G A111C A145C C150U C169U U176A	0.013
C82G A111C A145C C150U C169U U176G	0.00739
C82G A111C A120U C150U C169A U176A	0.00515
C82G A111C A120U C150U C169A U176G	0.00243
C82G A111C A120U C150U C169A U176C	0.00319
C82G A111C A145C C150U C169G U176A	0.0245
C82G A111C A145C C150U C169G U176C	0.0189
C82G A111C A145C C150U C169G U176G	0.00873
C82G A111C A120U A145U C150G C169U U176G	0.00234
C82G A111C A120U A145U C150G C169U U176A	0.00309

Variant	reverse-splicing fitness
C82G A111C A120U A145U C150G C169U U176C	0.00292
C82G A111C A120U A145U C169U U176C	0.00318
C82G A111C A120U A145U C169U U176A	0.00319
C82G A111C A120U A145U C169U U176G	0.00187
C82G A111C A120U A145C C150A U176A	0.00374
C82G A111C A120U A145C C150A U176C	0.00361
C82G A111C A120U A145C C150A U176G	0.00247
C82G A111C A120U A145G C150A U176A	0.00773
C82G A111C A120U A145G C150A U176G	0.00353
C82G A111C A120U A145G C150A U176C	0.0086
C82G A111C A120U A145G C150A C169A U176A	0.00791
C82G A111C A120U A145G C150A C169A U176G	0.0032
C82G A111C A120U A145G C150A C169A U176C	0.00453
C82G A111C A120U C150A	0.00807
C82G A111C A120U C150U	0.0243
C82G A111C A120U C150G	0.00766
C82G A111C A120U A145G C150U C169A U176A	0.00776
C82G A111C A120U A145G C150U C169A U176G	0.00301
C82G A111C A120U A145G C150U C169A U176C	0.00436
C82G A111C A120U C150A C169A U176A	0.00668
